The record followed here is article PMC6145688 (2018).

The labels stand for the following.
B1: SDC4-derived peptide VS52 (protein)
chain: VHPLVPLDNHIPERAGSGSQVPTEPKKLEENEVIPKRISPVEESEDVSNKVS

The assay addresses Recombinant active autotaxin-β (ATXβ) (Homo sapiens (Human), UniProt Q13822). Nature of the assay: SPR. Background: Surface plasmon resonance follows binding to a sensor surface in real time, without labels.
As for B1, the binding result is “no binding”.
Under RETEVIDPQDLLEGRYFSGALPDDED (protein) [SDC4-derived peptide RD26] stands “no binding”; under GALPDDEDVVGPGQESDDFEL (protein) [SDC4-derived peptide GL21], “no binding”.
